B1: endogenous ACE2 on Vero E6 cells (receptor, simian (endogenous in Vero E6))
chain: QSTIEEQAKTFLDKFNHEAEDLFYQSSLASWNYNTNITEENVQNMNNAGEKWSAFLKEQSTLAQMYPLQAIQNLTVKLQLQALQQNGSSVLSEDKSKRLNTILNTMSTIYSTGKVCNPNNPQECLLLDPGLNEIMEKSLDYNERLWAWEGWRSEVGKQLRPLYEEYVVLKNEMARANHYKDYGDYWRGDYEVNGVDGYDYNRDQLIEDVERTFEEIKPLYEHLHAYVRAKLMNAYPSYISPTGCLPAHLLGDMWGRFWTNLYSLTVPFGQKPNIDVTDAMVNQAWNAQRIFKEAEKFFVSVGLPNMTQGFWENSMLTDPGNVQKVVCHPTAWDLGKGDFRIIMCTKVTMDDFLTAHHEMGHIQYDMAYAAQPFLLRNGANEGFHEAVGEIMSLSAATPKHLKSIGLLSPDFQEDNETEINFLLKQALTIVGTLPFTYMLEKWRWMVFKGEIPKDQWMKKWWEMKREIVGVVEPVPHDETYCDPASLFHVSNDYSFIRYYTRTLYQFQFQEALCQAAKHEGPLHKCDISNSTEAGQKLLNMLKLGKSEPWTLALENVVGAKNMNVRPLLNYFEPLFTWLKDQNKNSFVGWSTDWSPYADQSIKVRISLKSALGANAYKWNDNEMYLFRSSVAYAMRQYFLENKHQTILFGEEDVRVADLKPRISFNFYVTAPKNVSDIIPRTEVEEAIRFSRSRINDAFQLNDNSLEFLGIQSTLIPPYQSPVTTWLIVFGVVMAVIVAGIVVLIFTGIRDRKKKNQARSEENPYASIDISKGENNPGFQNTDDVQTSF
notes: ACE2 endogenously expressed by the simian kidney cell line Vero E6; also called non-human ACE2 (Vero E6); source: endogenous, Vero E6 cells
B2: VHH B07 (VHH)
VHH: EVQLQASGGGLVQAGGSLRLSCAASRSTFSTNTIGWYRQAPGKQRELVASISTSGNTYYPDSVKGRFAISRDNAENTVYLQMNSLKPEDTAVYYCNTPSRRISNFWGQGTQVTVSS
notes: alpaca VHH from phage display (gene IGHV3S53); Expressed from pHEN6 with c-myc and His tags at the C-terminal end; also called anti-hACE2 VHH B07; source: E. coli TG1 periplasm, purified (His pure Cobalt sepharose beads); not shown: c-myc, C-terminal, kept; His, C-terminal, kept
B3: VHH B09 (VHH)
VHH: B2 VHH with E1Q, Q5V, A6E, A24T, T31S, P60A
notes: No structure of B09 was solved; also called anti-hACE2 VHH B09; source: E. coli TG1 periplasm, purified (His pure Cobalt sepharose beads); not shown: c-myc, C-terminal, kept; His, C-terminal, kept
B4: VHH B10 (VHH)
VHH: QVQLVESGGGLVQAGDSLRLSCAASGRTFSSYAMGWFRQALGKEREFVAVISGSGTSTYYTDSVKGRFTISRDNAKNTVYLQMNSLKPEDTAVYYCARAKGFSTIYNQDEGRYDYWGQGTQVTVSS
notes: alpaca VHH from phage display (gene IGHV3-3); also called anti-hACE2 VHH B10; source: E. coli TG1 periplasm, purified (His pure Cobalt sepharose beads); not shown: c-myc, C-terminal, kept; His, C-terminal, kept

In experiment [1] the target is T1, VHH B07-Fc (VHH B07 in fusion with the human IgG1 Fc segment) (alpaca).
T1 construct: also called dimeric VHH-Fc; source: Expi293 cells, transfected, purified from supernatant (HiTrap protein A, SEC Superdex 75); not shown: Fc (human IgG1; hinge, CH2 and CH3), C-terminal, kept
The experiment in a line: flow cytometry on cells; cell lines with exogenous or endogenous ACE2 incubated with 0.1 µg/mL VHH-Fc, 60 min at 4 °C; fluorescent anti-human IgG antibody. As to conditions: one partner purified. For orientation: Flow cytometry measures light scatter and fluorescence of single cells or particles in a stream.

The target of experiment [2] is T2, hACE2 peptidase domain fused to a human Fc from IgG (Homo sapiens, UniProt Q9BYF1).
T2 construct: human angiotensin-converting enzyme 2, peptidase domain; also called hACE2-Fc; sACE2-Fc
The experiment in a line: BLI; hACE2-Fc immobilised on AHC biosensors (1 µg/mL), monomeric VHHs as analytes; PBS working buffer with 300 mM NaCl, pH 7.2, 30 °C; global 1:1 fit, apparent KD. The note with it: both partners purified. A general note: In BLI a coated tip is dipped into the sample, and binding shifts an interference pattern.

Experiment [3] has as its target B1. The experiment in a line: flow cytometry on cells; cell lines with exogenous or endogenous ACE2 incubated with 10 µg/mL VHH, 60 min at 4 °C; anti-myc and fluorescent anti-mouse antibody; parental cells or a control VHH as negative controls. As to conditions: one partner purified.
Experiment [4] concerns the target T3, soluble human ACE2 peptidase domain (residues 19-615), untagged (Homo sapiens, UniProt Q9BYF1).
T3 construct: human ACE2 peptidase domain, residues 19-615, secreted with an IgK signal peptide; Residues of the thrombin site may remain at the C-terminus after cleavage; also called sACE2; soluble hACE2; source: Expi293F cells with kifunensine, purified (Streptactin, SEC, thrombin cleavage, SEC); not shown: His8, C-terminal, cleaved; Strep, C-terminal, cleaved
Put plainly: BLI; VHH-His immobilised on Ni-NTA biosensors, soluble hACE2 as analyte; PBS working buffer with 300 mM NaCl, pH 7.2, 30 °C; 1:1 fit, apparent KD. The note with it: both partners purified.

Changes are numbered by the printed parent chain.

T3 sequence (Q9BYF1 19-615): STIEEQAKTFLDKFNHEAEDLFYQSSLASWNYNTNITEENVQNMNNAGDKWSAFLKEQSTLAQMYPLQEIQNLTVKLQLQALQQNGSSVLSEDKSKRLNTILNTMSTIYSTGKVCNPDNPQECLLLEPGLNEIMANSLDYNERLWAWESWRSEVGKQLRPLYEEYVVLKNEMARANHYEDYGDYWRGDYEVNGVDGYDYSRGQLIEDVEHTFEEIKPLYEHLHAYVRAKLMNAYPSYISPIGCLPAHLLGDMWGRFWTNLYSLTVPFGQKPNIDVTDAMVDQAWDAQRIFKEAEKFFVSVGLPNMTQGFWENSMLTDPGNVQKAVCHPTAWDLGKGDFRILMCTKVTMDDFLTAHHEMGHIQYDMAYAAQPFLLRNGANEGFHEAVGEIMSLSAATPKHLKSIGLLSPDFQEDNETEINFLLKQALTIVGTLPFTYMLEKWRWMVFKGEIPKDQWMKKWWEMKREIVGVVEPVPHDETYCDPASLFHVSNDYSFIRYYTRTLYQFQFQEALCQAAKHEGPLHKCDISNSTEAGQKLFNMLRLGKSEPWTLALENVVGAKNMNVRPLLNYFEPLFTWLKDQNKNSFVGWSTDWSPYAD

B1: the binding result in experiment [1] is given as “binds”.
On to B2, for which the Kd in experiment [2] amounted to 242 nM; in experiment [4] it was 1140 nM. In addition, the binding result in experiment [3] is on record as “binds”.
In the same order, the values of B3 are 214 nM, 1960 nM and “binds”.
On to B4, for which the Kd in experiment [2] was 21 nM; in experiment [4], 22 nM. The binding result in experiment [3] was “binds”.

The record behind these values is publication PMC12638815, “Targeting ACE2 with a camelid antibody inhibits SARS-CoV-2 binding and has protective effects in vivo” (Nature Communications, 2025).
